Assay [1] has as its system Smad3 phosphorylation (canonical TGFβ signaling). Put plainly: Smad3 phosphorylation in serum starved IMR90 fibroblasts (Western blot). The format is cell-based, human. The settings on record: for Smad3 phosphorylation: serum starved IMR90, ~30 nM protein, 30 min, low serum media. On the procedure: (§1) IMR90 cells and MLEC-TGFβ cells were generally treated for 30 min, 24 h, or 48 h in low serum media containing 0.5% FBS and 1% penicillin/streptomycin and incubated in a 5% CO2 atmosphere at 37° C. Cells were treated with 3.75 μg/ml (approximately 30 nM) rACLP (full length, Tsp, or C-terminal) or 1 nM TGFβ (R&D) (as a positive control), except where indicated. Cells treated for 30 min were serum starved in low serum media overnight preceding treatment.
rACLP stimulates canonical TGFβ signaling (Published Tumelty et al JBC 2014). Because ACLP increases TGFβ signaling in a reporter assay, the role of ACLP in canonical TGFβ signaling was investigated in detail. In pulmonary fibroblasts, TGFβ promotes the phosphorylation of Smad3 which then binds to Smad4 and translocates into the nucleus to promote transcription of myofibroblast marker genes (4,5). Therefore, the effects of ACLP on Smad3 phosphorylation were measured. Serum starved IMR90 cells were treated with rACLP for 15, 30, 45, or 60 min, or 24 h (FIG. 3) (3).
Serum starved IMR90 human lung fibroblasts were treated with equivalent molar amounts (˜30 nM) of purified full-length, Tsp repeat domain, or C-terminal protein for 30 min in low serum media (FIG. 6).
On the technique in general: Immunoblotting shows a protein as a band on a membrane.

Assay [2] deals with TGFβ signaling activity (PAI-1 promoter luciferase). Put plainly: MLEC-TGFβ activity assay (PAI-1 promoter luciferase reporter). It is filed as cell-based, mink. Conditions: MLEC-TGFβ cells, treated overnight in low serum media. The method, then:
Cell Treatments. IMR90 human lung fibroblasts (ATCC) and AD293 cells (Stratagene) were grown in DMEM supplemented with 10% FBS and 1% penicillin/streptomycin and incubated in a 5% CO2 atmosphere at 37° C. Mink lung epithelial cells stably transfected with the plasminogen activator inhibitor 1 (PAI-1) reporter construct driving luciferase expression (MLEC-TGFβ) (2) were grown in DMEM supplemented with 10% FBS and 1% penicillin/streptomycin, maintained in 250 μg/ml G418, and incubated in a 5% CO2 atmosphere at 37° C. IMR90 cells and MLEC-TGFβ cells were generally treated for 30 min, 24 h, or 48 h in low serum media containing 0.5% FBS and 1% penicillin/streptomycin and incubated in a 5% CO2 atmosphere at 37° C. Cells were treated with 3.75 μg/ml (approximately 30 nM) rACLP (full length, Tsp, or C-terminal) or 1 nM TGFβ (R&D) (as a positive control), except where indicated. Cells treated for 30 min were serum starved in low serum media overnight preceding treatment. MLEC-TGFβ activity assay. To measure TGFβ signaling activity, 1×10^4 MLEC-TGFβ cells/well were plated on white 96-well cell culture treated plates and allowed to adhere overnight. […] Luciferase activity was measured on an auto-injecting BioTek Synergy HT plate reader using 50 μl of luciferase assay substrate (Promega).
(In general: A reporter such as luciferase makes a cellular process visible.)

Assay [3] deals with IMR90 human lung fibroblast cells. Nature of the assay: SMA and collagen I protein expression in IMR90 fibroblasts treated with recombinant ACLP proteins (Western blot). Conditions: IMR90, low serum media, 3.75 μg/ml (~30 nM) protein, 48 h, vs control cells. The format is cell-based. The method, then: Cell Treatments. IMR90 human lung fibroblasts (ATCC) and AD293 cells (Stratagene) were grown in DMEM supplemented with 10% FBS and 1% penicillin/streptomycin and incubated in a 5% CO2 atmosphere at 37° C. Mink lung epithelial cells stably transfected with the plasminogen activator inhibitor 1 (PAI-1) reporter construct driving luciferase expression (MLEC-TGFβ) (2) were grown in DMEM supplemented with 10% FBS and 1% penicillin/streptomycin, maintained in 250 μg/ml G418, and incubated in a 5% CO2 atmosphere at 37° C.
as §1
Recombinant ACLP induces myofibroblast gene and protein expression. To further define the role of ACLP in the fibroblast to myofibroblast differentiation process, IMR90 human lung fibroblast cells were treated with rACLP. […] IMR90 cells were grown in media containing 3.75 μg/ml (30 nM) rACLP or 1 nM TGFβ as a positive control (FIG. 2A). […] These findings indicate that ACLP promotes the fibroblast to myofibroblast differentiation because it stimulates expression of SMA and collagen 1(3).
The N-terminal domain of ACLP promotes myofibroblast marker protein expression. Because the inventors discovered that the N-terminal Tsp motifs of ACLP (e.g. the PFD) is the domain responsible for promoting TGFβ signaling, the inventors next assessed which domain of ACLP is responsible for increased SMA and collagen I expression in lung myofibroblasts. IMR90 lung fibroblasts were treated in low serum media containing equal molar amounts of full-length protein, the pro-fibrotic domain (PFD) of ACLP, and C-terminal ACLP (˜30 nM) for 48 h (FIG. 7).

Assay [4] has as its target T1, TGFβ Receptor II (TβRII) (Mus musculus, UniProt Q62312).
T1 construct: contains the extracellular domain of mouse TβRII fused to the Fc domain of human IgG; purchased R&D
T1 sequence (Q62312 24-166 limits assumed): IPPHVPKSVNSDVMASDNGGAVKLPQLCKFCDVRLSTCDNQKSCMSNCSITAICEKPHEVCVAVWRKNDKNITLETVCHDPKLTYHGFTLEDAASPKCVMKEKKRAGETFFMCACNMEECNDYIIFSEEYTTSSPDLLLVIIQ
Nature of the assay: ACLP binding assay: biotinylated rACLP on streptavidin plate incubated with TβRII Fc. Conditions: immobilized rACLP vs control-coated wells, p<0.05. On the procedure: ACLP binding assays. To determine if ACLP binds to TGFβ Receptor II (TORII), ACLP was biotinylated using an EZ-Link Sulfo-NHS-LC-Biotin kit (Thermo Scientific 21327) according to manufacturer's instructions. Briefly, rACLP (0.267 nM) was incubated with 20 fold molar excess of biotin for 30 min at room temperature. The protein was then dialyzed back into DPBS overnight. Biotinylated ACLP (1 μg/well) was immobilized on a PIERCE™ Streptavidin coated High-Binding Capacity Plate (Thermo-Scientific PI-15500) overnight at 4° C. in binding buffer made up of PBS with Mg^2+, Ca^2+, 0.1% BSA, and 0.05% Tween 20). The next day, the plates were washed with binding buffer, blocked with the same buffer containing 1% BSA at room temperature for 1 h, followed by incubation with increasing amounts of TβRII Fc (0, 10, 100, 1000 ng). Binding was detected with Human-IgG-HRP (GE Healthcare Life Sciences) followed by incubation with 3,3′,5,5′-Tetramethylbenzidine (TMB, eBioscience). The reaction was quenched with 2 M H2SO4 and absorbance at 450 nm was measured on the BioTek Synergy HT system.
ACLP binds to the TGFβ-receptor II. […] The TβRII Fc chimera contains the extracellular domain of mouse TβRII fused to the Fc domain of human IgG and has been used as a global inhibitor of TGFβ (6).

For assay [5], the system named is TGFβ. Nature of the assay: ACLP interaction with TGFβ (cell-free binding assay; latent TGFβ activation; data not shown).
Assay [6] has as its system Normal murine mammary gland epithelial cells (NMuMg). Nature of the assay: EMT marker qPCR in NMuMg cells treated with rACLP. It is filed as cell-based, mouse. On the procedure: Normal murine mammary gland epithelial cells (NMuMg) were treated with rACLP (30 nM) or TGFβ (1 nM) and RNA was analyzed by qPCR after 48 hours.
(In general: In qPCR the cycle at which signal appears reflects the starting amount.)

Data on two molecules can be found in patent publication US12139542B2, “Inhibitors of aortic carboxypeptidase-like protein (ACLP)” (TRUSTEES OF BOSTON UNIVERSITY, priority 2014, dated 2024).

B1: C-terminal ACLP: recombinant C-terminal discoidin and carboxypeptidase domains of mouse ACLP, amino acids 374-1128 (protein)
chain: IKCPPIGMESHRIEDNQIRASSMLRHGLGAQRGRLNMQAGANEDDYYDGAWCAEDESQTQWIEVDTRRTTRFTGVITQGRDSSIHDDFVTTFFVGFSNDSQTWVMYTNGYEEMTFYGNVDKDTPVLSELPEPVVARFIRIYPLTWNGSLCMRLEVLGCPVTPVYSYYAQNEVVTTDSLDFRHHSYKDMRQLMKAVNEECPTITRTYSLGKSSRGLKIYAMEISDNPGDHELGEPEFRYTAGIHGNEVLGRELLLLLMQYLCQEYRDGNPRVRNLVQDTRIHLVPSLNPDGYEVAAQMGSEFGNWALGLWTEEGFDIFEDFPDLNSVLWAAEEKKWVPYRVPNNNLPIPERYLSPDATVSTEVRAIISWMEKNPFVLGANLNGGERLVSYPYDMARTPSQEQLLAEALAAARGEDDDGVSEAQETPDHAIFRWLAISFASAHLTMTEPYRGGCQAQDYTSGMGIVNGAKWNPRSGTFNDFSYLHTNCLELSVYLGCDKFPHESELPREWENNKEALLTFMEQVHRGIKGVVTDEQGIPIANATISVSGINHGVKTASGGDYWRILNPGEYRVTAHAEGYTSSAKICNVDYDIGATQCNFILARSNWKRIREILAMNGNRPILRVDPSRPMTPQQRRMQQRRLQYRLRMREQMRLRRLNSTAGPATSPTPALMPPPSPTPAITLRPWEVLPTTTAGWEESETETYTEVVTEFETEYGTDLEVEEIEEEEEEEEEEMDTGLTFPLTTVETYTVNFGDF
modifications: left off: small tags and cut ends
With B1, the Smad3 phosphorylation entry in assay [1] is given as “did not”. The “amount that stimulated luciferase activity” value in assay [2] was above 25 µg/mL.

B2: rACLP: recombinant full length mouse ACLP (amino acids 26-1128), BM40 signal sequence, C-terminal myc-His tag, from AD293 cells (protein)
chain: QTVLTDDEIEEFLEGFLSELETQSPPREDDVEVQPLPEPTQRPRKSKAGGKQRADVEVPPEKNKDKEKKGKKDKGPKATKPLEGSTRPTKKPKEKPPKATKKPKEKPPKATKKPKEKPPKATKKPKEKPPKATKRPSAGKKFSTVAPLETLDRLLPSPSNPSAQELPQKRDTPFPNAWQGQGEETQVEAKQPRPEPEEETEMPTLDYNDQIEKEDYEDFEYIRRQKQPRPTPSRRRLWPERPEEKTEEPEERKEVEPPLKPLLPPDYGDSYVIPNYDDLDYYFPHPPPQKPDVGQEVDEEKEEMKKPKKEGSSPKEDTEDKWTVEKNKDHKGPRKGEELEEEWAPVEKIKCPPIGMESHRIEDNQIRASSMLRHGLGAQRGRLNMQAGANEDDYYDGAWCAEDESQTQWIEVDTRRTTRFTGVITQGRDSSIHDDFVTTFFVGFSNDSQTWVMYTNGYEEMTFYGNVDKDTPVLSELPEPVVARFIRIYPLTWNGSLCMRLEVLGCPVTPVYSYYAQNEVVTTDSLDFRHHSYKDMRQLMKAVNEECPTITRTYSLGKSSRGLKIYAMEISDNPGDHELGEPEFRYTAGIHGNEVLGRELLLLLMQYLCQEYRDGNPRVRNLVQDTRIHLVPSLNPDGYEVAAQMGSEFGNWALGLWTEEGFDIFEDFPDLNSVLWAAEEKKWVPYRVPNNNLPIPERYLSPDATVSTEVRAIISWMEKNPFVLGANLNGGERLVSYPYDMARTPSQEQLLAEALAAARGEDDDGVSEAQETPDHAIFRWLAISFASAHLTMTEPYRGGCQAQDYTSGMGIVNGAKWNPRSGTFNDFSYLHTNCLELSVYLGCDKFPHESELPREWENNKEALLTFMEQVHRGIKGVVTDEQGIPIANATISVSGINHGVKTASGGDYWRILNPGEYRVTAHAEGYTSSAKICNVDYDIGATQCNFILARSNWKRIREILAMNGNRPILRVDPSRPMTPQQRRMQQRRLQYRLRMREQMRLRRLNSTAGPATSPTPALMPPPSPTPAITLRPWEVLPTTTAGWEESETETYTEVVTEFETEYGTDLEVEEIEEEEEEEEEEMDTGLTFPLTTVETYTVNFGDF
modifications: left off: small tags and cut ends
On to B2, for which, in assay [3], the SMA protein expression result is given as “induced an increase” and the collagen protein expression result is recorded as “induced an increase”. Also, in assay [3] (listed as Full-length ACLP), the SMA protein expression entry is recorded as “promoted an increase” and the collagen protein expression result is recorded as “promoted an increase”. Moreover, in assay [1] (serum starved IMR90, 3.75 μg/ml rACLP), the “time at which Smad3 phosphorylation was first detected” value is listed as 15 min. Besides, the “Smad3 phosphorylation, short-term treatment” value in assay [1] (serum starved IMR90, 3.75 μg/ml rACLP, 15-60 min) was “stimulated Smad3 phosphorylation”. Besides, in assay [1] (serum starved IMR90, 3.75 μg/ml rACLP, 24 h), the “Smad3 phosphorylation after 24 h” value is on record as “not detectable”. In addition, the Smad3 phosphorylation result in assay [1] is reported as “stimulated Smad3 phosphorylation”. Further, in assay [4], the “binding to the TβRII Fc chimera (absorbance at 450 nm)” value was “significantly more binding”. In addition, the “activation of latent TGFβ” value in assay [5] is given as “did not appear to”. In addition, the “direct interaction with TGFβ” value in assay [5] (cell-free binding assay) was “did not appear to directly interact”. In assay [6] (ACLP treated cells, consistent with EMT), the cellular morphology entry is “change in cellular morphology”. Also, in assay [6] (NMuMg, rACLP 30 nM, 48 hours), the “epithelial marker occludin (qPCR)” value is “decreasing”, the “mesenchymal marker SMA (qPCR)” value was “enhanced”, the “mesenchymal marker Snail (qPCR)” value was “enhanced” and the “mesenchymal marker fibronectin (qPCR)” value is “enhanced”.
